# Measured values taken from IntAct's records for PubMed 31515488.
# B1: "Dol-P-Man:Man(5)GlcNAc(2)-PP-Dol alpha-1,3-mannosyltransferase" (Homo sapiens), Q92685 (parent)
# chain: MAAGLRKRGRSGSAAQAEGLCKQWLQRAWQERRLLLREPRYTLLVAACLCLAEVGITFWVIHRVAYTEIDWKAYMAEVEGVINGTYDYTQLQGDTGPLVYPAGFVYIFMGLYYATSRGTDIRMAQNIFAVLYLATLLLVFLIYHQTCKVPPFVFFFMCCASYRVHSIFVLRLFNDPVAMVLLFLSINLLLAQRWGWGCCFFSLAVSVKMNVLLFAPGLLFLLLTQFGFRGALPKLGICAGLQVVLGLPFLLENPSGYLSRSFDLGRQFLFHWTVNWRFLPEALFLHRAFHLALLTAHLTLLLLFALCRWHRTGESILSLLRDPSKRKVPPQPLTPNQIVSTLFTSNFIGICFSRSLHYQFYVWYFHTLPYLLWAMPARWLTHLLRLLVLGLIELSWNTYPSTSCSSAALHICHAVILLQLWLGPQPFPKSTQHSKKAH
# partner: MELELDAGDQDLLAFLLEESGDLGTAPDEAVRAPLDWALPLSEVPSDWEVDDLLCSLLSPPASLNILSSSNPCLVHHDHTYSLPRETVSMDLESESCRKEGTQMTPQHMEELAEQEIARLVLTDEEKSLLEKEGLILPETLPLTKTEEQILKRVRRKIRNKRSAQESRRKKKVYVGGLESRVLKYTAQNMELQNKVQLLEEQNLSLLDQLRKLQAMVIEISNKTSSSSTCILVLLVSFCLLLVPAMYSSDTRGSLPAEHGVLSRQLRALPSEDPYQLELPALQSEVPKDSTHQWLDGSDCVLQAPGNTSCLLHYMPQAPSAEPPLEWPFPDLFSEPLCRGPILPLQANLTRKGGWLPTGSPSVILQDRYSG
# B2: Protein ZNRD2 (Homo sapiens), O60232 (parent)
# chain: MALNGAEVDDFSWEPPTEAETKVLQARRERQDRISRLMGDYLLRGYRMLGETCADCGTILLQDKQRKIYCVACQELDSDVDKDNPALNAQAALSQAREHQLASASELPLGSRPAPQPPVPRPEHCEGAAAGLKAAQGPPAPAVPPNTDVMACTQTALLQKLTWASAELGSSTSLETSIQLCGLIRACAEALRSLQQLQH
# partner: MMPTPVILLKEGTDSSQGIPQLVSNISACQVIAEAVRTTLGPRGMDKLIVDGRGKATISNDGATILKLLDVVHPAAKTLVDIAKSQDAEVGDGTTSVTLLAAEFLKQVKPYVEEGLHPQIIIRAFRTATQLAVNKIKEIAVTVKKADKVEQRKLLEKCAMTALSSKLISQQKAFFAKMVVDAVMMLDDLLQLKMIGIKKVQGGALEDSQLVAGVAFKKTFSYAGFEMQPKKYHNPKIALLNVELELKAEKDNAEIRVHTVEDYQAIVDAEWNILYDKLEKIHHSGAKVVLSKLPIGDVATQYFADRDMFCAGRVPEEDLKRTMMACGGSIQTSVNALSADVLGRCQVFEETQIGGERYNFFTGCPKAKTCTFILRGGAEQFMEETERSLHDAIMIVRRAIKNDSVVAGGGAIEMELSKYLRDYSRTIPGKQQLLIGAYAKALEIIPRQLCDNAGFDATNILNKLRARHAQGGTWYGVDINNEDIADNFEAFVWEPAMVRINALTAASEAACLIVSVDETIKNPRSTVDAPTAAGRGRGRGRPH
# B3: Flavin-containing monooxygenase 3 (Homo sapiens), P31513 (parent)
# chain: MGKKVAIIGAGVSGLASIRSCLEEGLEPTCFEKSNDIGGLWKFSDHAEEGRASIYKSVFSNSSKEMMCFPDFPFPDDFPNFMHNSKIQEYIIAFAKEKNLLKYIQFKTFVSSVNKHPDFATTGQWDVTTERDGKKESAVFDAVMVCSGHHVYPNLPKESFPGLNHFKGKCFHSRDYKEPGVFNGKRVLVVGLGNSGCDIATELSRTAEQVMISSRSGSWVMSRVWDNGYPWDMLLVTRFGTFLKNNLPTAISDWLYVKQMNARFKHENYGLMPLNGVLRKEPVFNDELPASILCGIVSVKPNVKEFTETSAIFEDGTIFEGIDCVIFATGYSFAYPFLDESIIKSRNNEIILFKGVFPPLLEKSTIAVIGFVQSLGAAIPTVDLQSRWAAQVIKGTCTLPSMEDMMNDINEKMEKKRKWFGKSETIQTDYIVYMDELSSFIGAKPNIPWLFLTDPKLAMEVYFGPCSPYQFRLVGPGQWPGARNAILTQWDRSLKPMQTRVVGRLQKPCFFFHWLKLFAIPILLIAVFLVLT
# partner: B1 partner
# B4: Cyclin-dependent kinase 2-interacting protein (Homo sapiens), Q9BW66 (parent)
# chain: MEAKTLGTVTPRKPVLSVSARKIKDNAADWHNLILKWETLNDAGFTTANNIANLKISLLNKDKIELDSSSPASKENEEKVCLEYNEELEKLCEELQATLDGLTKIQVKMEKLSSTTKGICELENYHYGEESKRPPLFHTWPTTHFYEVSHKLLEMYRKELLLKRTVAKELAHTGDPDLTLSYLSMWLHQPYVESDSRLHLESMLLETGHRAL
# partner: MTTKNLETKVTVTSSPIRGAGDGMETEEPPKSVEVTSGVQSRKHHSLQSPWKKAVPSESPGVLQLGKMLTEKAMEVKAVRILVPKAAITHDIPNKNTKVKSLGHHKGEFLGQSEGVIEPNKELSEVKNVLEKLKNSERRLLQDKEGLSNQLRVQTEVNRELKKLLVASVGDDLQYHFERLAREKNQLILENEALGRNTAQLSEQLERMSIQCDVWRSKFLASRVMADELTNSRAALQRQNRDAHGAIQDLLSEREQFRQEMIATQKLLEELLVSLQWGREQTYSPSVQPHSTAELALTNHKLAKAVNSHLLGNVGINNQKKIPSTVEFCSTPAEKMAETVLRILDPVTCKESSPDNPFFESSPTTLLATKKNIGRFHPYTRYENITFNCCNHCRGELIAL
# B5: Endoplasmic reticulum resident protein 27 (Homo sapiens), Q96DN0 (parent)
# chain: MEAAPSRFMFLLFLLTCELAAEVAAEVEKSSDGPGAAQEPTWLTDVPAAMEFIAATEVAVIGFFQDLEIPAVPILHSMVQKFPGVSFGISTDSEVLTHYNITGNTICLFRLVDNEQLNLEDEDIESIDATKLSRFIEINSLHMVTEYNPVTVIGLFNSVIQIHLLLIMNKASPEYEENMHRYQKAAKLFQGKILFILVDSGMKENGKVISFFKLKESQLPALAIYQTLDDEWDTLPTAEVSVEHVQNFCDGFLSGKLLKENRESEGKTPKVEL
# B6: Amyloid beta A4 precursor protein-binding family B member 1-interacting protein (Homo sapiens), Q7Z5R6-2 (parent)
# chain: MGESSEDIDQMFSTLLGEMDLLTQSLGVDTLPPPDPNPPRAEFNYSVGFKDLNESLNALEDQDLDALMADLVADISEAEQRTIQAQKESLQNQHHSASLQASIFSGAASLGYGTNVAATGISQYEDDLPPPPADPVLDLPLPPPPPEPLSQVSMWDQRWQDHQPLLPITDVP
# B7: Retinoic acid receptor alpha (Homo sapiens), P10276 (parent)
# chain: MASNSSSCPTPGGGHLNGYPVPPYAFFFPPMLGGLSPPGALTTLQHQLPVSGYSTPSPATIETQSSSSEEIVPSPPSPPPLPRIYKPCFVCQDKSSGYHYGVSACEGCKGFFRRSIQKNMVYTCHRDKNCIINKVTRNRCQYCRLQKCFEVGMSKESVRNDRNKKKKEVPKPECSESYTLTPEVGELIEKVRKAHQETFPALCQLGKYTTNNSSEQRVSLDIDLWDKFSELSTKCIIKTVEFAKQLPGFTTLTIADQITLLKAACLDILILRICTRYTPEQDTMTFSDGLTLNRTQMHNAGFGPLTDLVFAFANQLLPLEMDDAETGLLSAICLICGDRQDLEQPDRVDMLQEPLLEALKVYVRKRRPSRPHMFPKMLMKITDLRSISAKGAERVITLKMEIPGSMPPLIQEMLENSEGLDTLSGQPGGGGRDGGGLAPPPGSCSPSLSPSSNRSSPATHSP
# partner: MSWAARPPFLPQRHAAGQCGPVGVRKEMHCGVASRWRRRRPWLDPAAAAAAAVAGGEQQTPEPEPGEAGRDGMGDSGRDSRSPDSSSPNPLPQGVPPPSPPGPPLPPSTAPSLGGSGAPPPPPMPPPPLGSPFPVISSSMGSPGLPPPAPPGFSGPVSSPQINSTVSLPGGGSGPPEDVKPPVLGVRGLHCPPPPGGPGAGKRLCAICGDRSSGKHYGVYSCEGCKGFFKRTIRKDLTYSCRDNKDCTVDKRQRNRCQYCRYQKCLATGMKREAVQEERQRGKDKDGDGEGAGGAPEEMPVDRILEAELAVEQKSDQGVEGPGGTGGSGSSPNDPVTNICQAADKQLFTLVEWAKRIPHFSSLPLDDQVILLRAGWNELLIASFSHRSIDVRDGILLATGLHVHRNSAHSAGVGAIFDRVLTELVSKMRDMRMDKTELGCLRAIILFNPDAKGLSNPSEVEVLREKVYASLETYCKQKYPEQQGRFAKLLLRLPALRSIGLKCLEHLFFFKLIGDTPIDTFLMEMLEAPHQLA
# Variants of: B1
# Conditions: with creb3_human CREB3, O43889
row,effect of a mutation on the interaction,Variant
1,with no effect,I107V

# Variants of: B2
# Conditions: with tcph_human CCT7, Q99832
row,effect of a mutation on the interaction,Variant
1,with no effect,T21M

# Variants of: B3
# Conditions: with creb3_human CREB3, O43889
row,effect of a mutation on the interaction,Variant
1,with no effect,G180V
2,with no effect,E158K

# Variants of: B4
# Conditions: with go45_human BLZF1, Q9H2G9
row,effect of a mutation on the interaction,Variant
1,with no effect,R164H

# Variants of: B4
# Conditions: with go45_human BLZF1, Q9H2G9
# Remark: another data set of the same source
row,effect of a mutation on the interaction,Variant
1,with no effect,D177N

# Variants of: B5
# Conditions: with ef1d_human EEF1D
row,effect of a mutation on the interaction,Variant
1,with no effect,E122K

# Variants of: B5
# Conditions: with ubql1_human UBQLN1, Q9UMX0
# ubql1_human UBQLN1, Q9UMX0, sequence (Q9UMX0 whole entry): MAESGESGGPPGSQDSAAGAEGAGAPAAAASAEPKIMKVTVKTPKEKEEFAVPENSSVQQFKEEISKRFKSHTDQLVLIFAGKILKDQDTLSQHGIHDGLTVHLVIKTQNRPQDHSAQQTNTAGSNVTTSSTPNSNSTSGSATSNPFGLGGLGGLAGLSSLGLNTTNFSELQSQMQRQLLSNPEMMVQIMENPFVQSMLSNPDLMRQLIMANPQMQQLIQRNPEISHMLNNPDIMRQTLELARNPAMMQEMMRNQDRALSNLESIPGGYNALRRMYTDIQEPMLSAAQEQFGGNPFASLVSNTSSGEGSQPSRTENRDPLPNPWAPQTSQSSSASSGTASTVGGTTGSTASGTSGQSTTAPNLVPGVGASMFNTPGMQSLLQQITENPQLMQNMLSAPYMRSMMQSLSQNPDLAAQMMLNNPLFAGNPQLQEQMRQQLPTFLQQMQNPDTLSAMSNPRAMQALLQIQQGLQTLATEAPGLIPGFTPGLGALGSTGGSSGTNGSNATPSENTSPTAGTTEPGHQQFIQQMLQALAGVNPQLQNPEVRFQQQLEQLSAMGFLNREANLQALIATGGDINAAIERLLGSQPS
row,effect of a mutation on the interaction,Variant
1,with no effect,E122K

# Variants of: B5
# Conditions: with sgta_human SGTA
row,effect of a mutation on the interaction,Variant
1,with no effect,E122K

# Variants of: B6
# Conditions: with dpy30_human DPY30, Q9C005
# dpy30_human DPY30, Q9C005, sequence (Q9C005 whole entry): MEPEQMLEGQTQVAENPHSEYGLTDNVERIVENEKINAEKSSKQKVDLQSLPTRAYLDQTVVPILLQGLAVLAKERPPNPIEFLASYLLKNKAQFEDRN
row,effect of a mutation on the interaction,Variant
1,with no effect,D134N

# Variants of: B7
# Conditions: with rxrb_human RXRB
row,effect of a mutation on the interaction,Variant
1,with no effect,P318R
